Two molecules from patent US20230279089A1 can be followed below.

Assay in all cases: cell-based or functional assay
Assay [1] addresses BMP1/TLL activity in rat plasma.
In assay [2] the target is BMP1/TLL activity in human serum.
In assay [3] the target is BMP1/TLL activity in mouse plasma.
In assay [4] the target is endogenous BMP1 of human primary cardiac fibroblasts (human), P13497.
Chain of endogenous BMP1 of human primary cardiac fibroblasts (human), P13497 (P13497 121-986): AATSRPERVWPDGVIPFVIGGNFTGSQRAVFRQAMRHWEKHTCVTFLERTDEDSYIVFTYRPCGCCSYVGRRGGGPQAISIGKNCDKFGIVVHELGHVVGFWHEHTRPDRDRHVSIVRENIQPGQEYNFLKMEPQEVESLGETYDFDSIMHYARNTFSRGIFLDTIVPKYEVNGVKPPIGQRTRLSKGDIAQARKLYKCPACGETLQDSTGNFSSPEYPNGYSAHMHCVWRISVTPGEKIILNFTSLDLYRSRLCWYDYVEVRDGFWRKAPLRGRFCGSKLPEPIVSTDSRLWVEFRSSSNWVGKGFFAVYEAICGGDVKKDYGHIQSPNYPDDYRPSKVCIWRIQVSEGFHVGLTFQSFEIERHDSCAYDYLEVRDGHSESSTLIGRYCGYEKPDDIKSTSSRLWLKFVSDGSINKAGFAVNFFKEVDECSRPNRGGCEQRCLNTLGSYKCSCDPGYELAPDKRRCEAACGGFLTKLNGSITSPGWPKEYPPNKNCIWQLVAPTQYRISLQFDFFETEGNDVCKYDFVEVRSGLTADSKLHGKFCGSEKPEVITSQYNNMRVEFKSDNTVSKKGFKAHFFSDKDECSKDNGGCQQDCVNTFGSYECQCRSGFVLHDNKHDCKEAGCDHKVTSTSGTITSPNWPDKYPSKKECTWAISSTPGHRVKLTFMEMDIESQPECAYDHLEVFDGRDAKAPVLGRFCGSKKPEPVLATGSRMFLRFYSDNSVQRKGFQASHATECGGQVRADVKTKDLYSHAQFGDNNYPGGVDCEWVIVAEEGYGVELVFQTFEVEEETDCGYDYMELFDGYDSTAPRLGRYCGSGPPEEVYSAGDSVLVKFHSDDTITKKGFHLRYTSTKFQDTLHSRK

B1: 13Y039-4B06-4334 human variable region on rat IgG2b LAGA Fc and rat Kappa (Compound C) (antibody)
heavy: QVQLVQSGAEVKKPGASVKVSCKASGYTFLGYYMSWVRQAPGQGLEWMGWINPLSGETNYAQKFQGRVTMTRDTSISTAYMELSRLRSDDTAVYYCARDTGELDGMNWYFDLWGRGTLVTVSSAQTTAPSVYPLAPGCGDTTSSTVTLGCLVKGYFPEPVTVTWNSGALSSDVHTFPAVLQSGLYTLTSSVTSSTWPSQTVTCNVAHPASSTKVDKKVERRNGGIGHKCPTCPTCHKCPVPELAGAPSVFIFPPKPKDILLISQNAKVTCVVVDVSEEEPDVQFSWFVNNVEVHTAQTQPREEQYNSTFRVVSALPIQHQDWMSGKEFKCKVNNKALPSPIEKTISKPKGLVRKPQVYVMGPPTEQLTEQTVSLTCLTSGFLPNDIGVEWTSNGHIEKNYKNTEPVMDSDGSFFMYSKLNVERSRWDSRAPFVCSVVHEGLHNHHVEKSISRPPGK
light: EIVLTQSPATLSLSPGERATLSCRASQSVSSYLAWYQQKPGQAPRLLIYDASNRATGIPARFSGSGSGTDFTLTISSLEPEDFAVYYCQQSDSWPPTFGGGTKVEIKRADAAPTVSIFPPSTEQLATGGASVVCLMNNFYPRDISVKWKIDGTERRDGVLDSVTDQDSKDSTYSMSSTLSLTKADYESHNLYTCEVVHKTSSSPVVKSFNRNEC
As to B1, the pIC50, FRET enzyme activity, Rat plasma (n = 2) in assay [1] worked out at 9.1. Besides, in assay [2], the pIC50, FRET enzyme activity, Human serum (n = 1) came to 8.7.

B2: 13Y039-4B06-4334 human variable region on mouse IgG2a LAGA Fc, mouse cKappa (Compound A) (antibody)
heavy: QVQLVQSGAEVKKPGASVKVSCKASGYTFLGYYMSWVRQAPGQGLEWMGWINPLSGETNYAQKFQGRVTMTRDTSISTAYMELSRLRSDDTAVYYCARDTGELDGMNWYFDLWGRGTLVTVSSAKTTAPSVYPLAPVCGDTTGSSVTLGCLVKGYFPEPVTLTWNSGSLSSGVHTFPAVLQSDLYTLSSSVTVTSSTWPSQSITCNVAHPASSTKVDKKIEPRGPTIKPCPPCKCPAPNLAGAPSVFIFPPKIKDVLMISLSPIVTCVVVDVSEDDPDVQISWFVNNVEVHTAQTQTHREDYNSTLRVVSALPIQHQDWMSGKEFKCKVNNKDLPAPIERTISKPKGSVRAPQVYVLPPPEEEMTKKQVTLTCMVTDFMPEDIYVEWTNNGKTELNYKNTEPVLDSDGSYFMYSKLRVEKKNWVERNSYSCSVVHEGLHNHHTTKSFSRTPGK
light: EIVLTQSPATLSLSPGERATLSCRASQSVSSYLAWYQQKPGQAPRLLIYDASNRATGIPARFSGSGSGTDFTLTISSLEPEDFAVYYCQQSDSWPPTFGGGTKVEIKRADAAPTVSIFPPSSEQLTSGGASVVCFLNNFYPKDINVKWKIDGSERQNGVLNSWTDQDSKDSTYSMSSTLTLTKDEYERHNSYTCEATHKTSTSPIVKSFNRNEC
Molecule B2 gave a pIC50, FRET enzyme activity, Mouse plasma (n = 1) in assay [3] of 7.5. This molecule also showed a pIC50, FRET enzyme activity, Human serum (n = 1) in assay [2] of 10.1. In addition, the pIC50, scar-in-a-jar (SIJ) assay in assay [4] was found to be 9.8.
